Assay results reported in article PMC7467569, “The Progesterone 5β-Reductase/Iridoid Synthase Family: A Catalytic Reservoir for Specialized Metabolism across Land Plants” (ACS Chemical Biology, 2020).

What was measured:
Assay in all cases: purified protein
[1] = test system: CC(=O)[C@H]1CC[C@H]2[C@@H]3CCC4=CC(=O)CC[C@]4(C)[C@H]3CC[C@]12C; type: biochemical, Digitalis lanata; details: 250 μM NADPH, 50 mM HEPES/NaOH pH 7.0, 100 mM NaCl, 25 °C, 1.5% ethanol
[2] = test system: CC(=O)[C@H]1CC[C@H]2[C@@H]3CCC4=CC(=O)CC[C@]4(C)[C@H]3CC[C@]12C; type: biochemical, Digitalis purpurea; details: 250 μM NADPH, 50 mM HEPES/NaOH pH 7.0, 100 mM NaCl, 25 °C, 1.5% ethanol
C/C(C=O)=C\CC/C(C)=C/C=O = details: 250 μM NADPH, 50 mM HEPES/NaOH pH 7.0, 100 mM NaCl, 25 °C, 0.1% tetrahydrofuran
[3] = test system: CC(=O)[C@H]1CC[C@H]2[C@@H]3CCC4=CC(=O)CC[C@]4(C)[C@H]3CC[C@]12C; details: 250 μM NADPH, 50 mM HEPES/NaOH pH 7.0, 100 mM NaCl, 25 °C, 1.5% ethanol

Work on “Digitalis lanata 1 (PRISE1, progesterone 5β-reductase) (Digitalis lanata)” yielded a Km [1] of 6.5 ± 2.0 µM.

“Digitalis purpurea 2 (Digitalis purpurea)” showed a Km [2] of 6.3 ± 1.9 µM.

With “Physcomitrella patens PRISE (Physcomitrium patens)” the Km (C/C(C=O)=C\CC/C(C)=C/C=O) was 31.3 ± 8.6 µM, the kcat (C/C(C=O)=C\CC/C(C)=C/C=O) was 0.066 ± 0.005 s⁻¹ and the kcat/Km (C/C(C=O)=C\CC/C(C)=C/C=O) was 2100 M⁻¹ s⁻¹. The Km [3] was 9.5 ± 3.1 µM.
